What was measured:
[1] = tested on: male BALB/c mice; test: Serial FGF23 and heparin injections in mice, echocardiography and heart weight; format: in vivo, mouse; conditions: heparin 125 USP/kg and/or FGF23 40 μg/kg
Procedure: FGF23 injections were administered following a similar protocol established previously. 13,72,73 Briefly, 12-week-old male BALB/c mice (The Jackson Laboratory) underwent tail vein injections. The day before the experiment, mice underwent echocardiographic analysis, as described below. Mice were anesthetized in 2.5% isoflurane and placed on a heat pad. Each group consisted of 5 mice, and different groups were injected with isotonic saline, heparin, FGF23, or FGF23 and heparin combined. Per injection, 40 μg/kg of FGF23 and 125, 62.5, or 12.5 USP/kg of heparin dissolved in 200 μl of isotonic saline were used, with 8 hours were used between injections for a total of 5 consecutive days. All injections were performed via the lateral tail vein. On the morning of the sixth day, 16 hours after the final tail vein injection, animals underwent echocardiographic analysis and were killed. Middle sections of hearts were cut along the short axis and stored overnight in 4% phosphate-buffered formaldehyde solution. Sections were sent to IDEXX Laboratories for embedding, hematoxylin and eosin (H&E) staining, and sectioning. Sections for wheat germ agglutinin (WGA) labeling were not stained by IDEXX Laboratories.
Echocardiographic analysis was performed on day 6 of the experiment for FGF23-injected mice by using the Vevo 770 or Vevo 3100 imaging system (FUJIFILM VisualSonics). Animals were anesthetized with 1.5% isoflurane, and normal body temperature was maintained using a rectal probe for temperature monitoring. For analysis, both B- and M-mode images were obtained in the short- and long-axis views. Correct positioning of the transducer was ensured using B-mode imaging in the long-axis view before switching to the short-axis view. Image analysis was performed using Vevo 770 Workstation and Vevo LAB software (FUJIFILM VisualSonics).

[2] = tested on: FGF23 and FGFR1c; test: sKL detection assay (FGF23 coated, Fc-FGFR1c detection); format: binding
Procedure: Commercially available ELISA plates (Maxisorp) are coated with 5 μg/ml of recombinant FGF23 protein (R&D Systems) and unspecific binding sites are blocked with BSA/Tween20. Wells are incubated with sKL in solution (which can be plasma, serum or cell culture supernatants) for one hour, washed and incubated for one hour with 750 ng/ml of recombinant FGFR1α(IIIc)-Fc (R&D Systems), which is a chimeric protein consisting of the FGFR1 ectodomain and the Fc region of a human IgG. FGFR1 only binds to FGF23 in the presence of sKL, and the formation of this trimeric sandwich complex is then measured by detecting the presence of the Fc domain that is coupled to FGFR1. To do so, wells are washed and incubated with 400 ng/ml of anti-human IgG conjugated to horseradish peroxidase (HRP; Promega). Wells are washed and incubated with HRP substrate. After development for about 30 minutes, reactions are analyzed on a standard plate reader via absorptions at […]. Incubations with recombinant sKL dissolved in PBS at defined concentrations serve as standards that are used as reference values to determine sKL concentrations in the studied human samples. […]
HEK293 cells were plated in 10 cm dishes supplemented with 10% FBS (26140079, Gibco) and I× Pen/Strep (15140122, Gibco). Cells were transfected with appropriate klotho or green fluorescent protein cDNA constructs. After 2 days, clones were selected by using 1 μg/ml of puromycin (A1113803, Gibco). Cells were then split and plated in 10 cm dishes in DMEM supplemented with FBS and puromycin. After 48 hours, cells were lysed in 1 ml of RIPA buffer with the addition of a protease inhibitor (11873580001, Roche) for 30 minutes. The mixture was then centrifuged at 20,000 g for 1 hour to remove all cell debris. Activity assay was run as above in the sKL halflife study. Instead of serum, 20 μl of the indicated cell lysate was used and combined with 80 μl of activity assay buffer.

binding activity relative to Com.sKL ([2]; purified proteins)	Molecule	Endocardial % EF [1] [%]	Endocardial % FAC [1] [%]	Endocardial Area; s [1] [mm²]	Endocardial major; d [1] [mm]	Epicardial Area: s [1] [mm²]	Epicardial Area; d [1] [mm²]	Heart rate [1] [BPM]	LV Mass; d [1] [mg]	T; d [1] [mm]	Endocardial Area; d ([1]; i.v. 2 times per day for 5 days, mean ± SEM) [mm²]	binding in the sKL detection assay, total cell lysates ([2]; lysates of stably transfected HEK293T cells)
–	FGF23: recombinant fibroblast growth factor 23 protein from R&D Systems (protein) YPDTSPLLGSNWGSLTHLYTATARTSYHLQIHRDGHVDGTPHQTIYSALMITSEDAGSVVITGAMTRRFLCMDLHGNIFGSLHFSPENCKFRQWTLENGYDVYLSQKHHYLVSLGRAKRIFQPGTNPPPFSQFLARRNEVPLLHFYTVRPRRHTRSAEDPPERDPLNVLKPRPRATPVPVSCSRELPSAEEGGPAASDPLGVLRRGRGDARGGAGGADRCRPFPRFV	61.57 ± 3.48	51.38 ± 2.02	4.88 ± 0.34	7.94 ± 0.09	19.4 ± 0.46	23.1 ± 0.45	452.70 ± 4.48	122.10 ± 3.05	0.94 ± 0.02	9.93 ± 0.39	–
approximately 7 ×	sKL: recombinant soluble α-klotho ectodomain, mouse aa 35-982 and human aa 34-981, FLAG- or Strep/His-tagged, purified from HEK293 cells (protein, left off: small tags and cut ends, recombinant soluble α-klotho ectodomain, mouse aa 35-982 and human aa 34-981, FLAG- or Strep/His-tagged, purified from HEK293 cells) EPGDGAQTWARFSRPPAPEAAGLFQGTFPDGFLWAVGSAAYQTEGGWQQHGKGASIWDTFTHHPLAPPGDSRNASLPLGAPSPLQPATGDVASDSYNNVFRDTEALRELGVTHYRFSISWARVLPNGSAGVPNREGLRYYRRLLERLRELGVQPVVTLYHWDLPQRLQDAYGGWANRALADHFRDYAELCFRHFGGQVKYWITIDNPYVVAWHGYATGRLAPGIRGSPRLGYLVAHNLLLAHAKVWHLYNTSFRPTQGGQVSIALSSHWINPRRMTDHSIKECQKSLDFVLGWFAKPVFIDGDYPESMKNNLSSILPDFTESEKKFIKGTADFFALCFGPTLSFQLLDPHMKFRQLESPNLRQLLSWIDLEFNHPQIFIVENGWFVSGTTKRDDAKYMYYLKKFIMETLKAIKLDGVDVIGYTAWSLMDGFEWHRGYSIRRGLFYVDFLSQDKMLLPKSSALFYQKLIEKNGFPPLPENQPLEGTFPCDFAWGVVDNYIQVDTTLSQFTDLNVYLWDVHHSKRLIKVDGVVTKKRKSYCVDFAAIQPQIALLQEMHVTHFRFSLDWALILPLGNQSQVNHTILQYYRCMASELVRVNITPVVALWQPMAPNQGLPRLLARQGAWENPYTALAFAEYARLCFQELGHHVKLWITMNEPYTRNMTYSAGHNLLKAHALAWHVYNEKFRHAQNGKISIALQADWIEPACPFSQKDKEVAERVLEFDIGWLAEPIFGSGDYPWVMRDWLNQRNNFLLPYFTEDEKKLIQGTFDFLALSHYTTILVDSEKEDPIKYNDYLEVQEMTDITWLNSPSQVAVVPWGLRKVLNWLKFKYGDLPMYIISNGIDDGLHAEDDQLRVYYMQNYINEALKAHILDGINLCGYFAYSFNDRTAPRFGLYRYAADQFEPKASMKHYRKIIDSNGFPGPETLERFCPEEFTVCTECSFFHTRKS	–	–	–	–	–	–	–	–	–	–	strong signal

Source: patent US20240384250A1, “FIBROBLAST GROWTH FACTOR 23 MODULATING COMPOUNDS” (THE UAB RESEARCH FOUNDATION, priority 2021, published 2024)
